From the supplement of paper PMC10201428
± gives the standard deviation of the averaged measurements.

Columns and labels:
[1] = test system: VchCAST RNA-guided transposition machinery (E. coli BL21(DE3) host, lacZ target); experiment: relative integration efficiency (T-LR orientation) vs wild-type transposon end (log2 (normalized fold change)); transposon end mutated: left end; higher = more efficient transposition
How it was run: (§1)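 Barcode abundances in input plasmids and in genomic integration junctions were obtained by PCR amplification and Illumina sequencing. These came from E. coli BL21(DE3) co-transformed with a T7-driven effector plasmid and a pUC57 donor carrying 1549 left-end or 1849 right-end transposon variants, then plated with 0.1 mM IPTG at 37°C for 18 h. Relative integration efficiency is the output/input fold change, normalised to reference barcodes and log-transformed.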

[2] = test system: VchCAST RNA-guided transposition machinery (E. coli BL21(DE3) host, lacZ target); experiment: relative integration efficiency (T-RL orientation) vs wild-type transposon end (log2 (normalized fold change)); transposon end mutated: left end; higher = more efficient transposition
How it was run: as §1

Row | Sequence | relative integration efficiency (log2) [1] | relative integration efficiency (log2) [2]
1 | AATGTTGTTGATGCAACCATAAAGTGATATTTAATAATTATTTATAATCAGCAACTTAACCACAAAACAACCATATATTGATATCTCACAACCATAAGTTGATATTTTTGTGAATCGAGTATTTCAGCAAAACTACTGCAGTAAGAAAGTTA | -1.81 ± 1.5 | -3.63 ± 0.88
2 | AATGTTGTTGATGCAACCATAAAGTGATATTTAATAATTATTTATAATCAGCAACTTAACCACAAAACAACCATATATTGATATCTCACACAACCATAAGTTGATATTTTTGTGAATCGAGTATTTCAGCAAAACTACTGCAGTAAGAAAGT | -1.4 ± 0.91 | -3.26 ± 0.94
3 | AATGTTGTTGATGCAACCATAAAGTGATATTTAATAATTATTTATAATCAGCAACTTAACCACAAAACAACCATATATTGATATCTCACACCCACCAACGCCTGGTCGCGGGGGTGTCCGATCTGATTTCAGCAAAACTACTGCAGTAAGAA | -1.23 ± 1.7 | -2.48 ± 0.87
4 | AATGTTGTTGATGCAACCATAAAGTGATATTTAATAATTATTTATAATCAGCAACTTAACCACAAAACAACCATATATTGATATCTCACCAACCATAAGTTGATATTTTTGTGAATCGAGTATTTCAGCAAAACTACTGCAGTAAGAAAGTT | -2.01 ± 2.7 | -3.37 ± 0.94
5 | AATGTTGTTGATGCAACCATAAAGTGATATTTAATAATTATTTATAATCAGCAACTTAACCACAAAACAACCATATATTGATATCTCACCCCCACCAACGCCTGGTCGCGGGGGTGTCCGATCTGATTTCAGCAAAACTACTGCAGTAAGAA | -1.5 ± 1.8 | -2.66 ± 0.95
6 | AATGTTGTTGATGCAACCATAAAGTGATATTTAATAATTATTTATAATCAGCAACTTAACCACAAAACAACCATATATTGATATCTCCAACCATAAGTTGATATTTTTGTGAATCGAGTATTTCAGCAAAACTACTGCAGTAAGAAAGTTAC | -1.44 ± 1.2 | -3.71 ± 1.5
7 | AATGTTGTTGATGCAACCATAAAGTGATATTTAATAATTATTTATAATCAGCAACTTAACCACAAAACAACCATATATTGATATCTCCACCCCACCAACGCCTGGTCGCGGGGGTGTCCGATCTGATTTCAGCAAAACTACTGCAGTAAGAA | -0.685 ± 1.1 | -2.45 ± 0.85
8 | AATGTTGTTGATGCAACCATAAAGTGATATTTAATAATTATTTATAATCAGCAACTTAACCACAAAACAACCATATATTGATCGAGACACCCCACCAACGCCTGGTCGCGGGGGTGTCCGATCTGATTTCAGCAAAACTACTGCAGTAAGAA | -2.14 ± 1.3 | -3.99 ± 1.6
9 | AATGTTGTTGATGCAACCATAAAGTGATATTTAATAATTATTTATAATCAGCAACTTAACCACAAAACAACCATATATTGCGCGAGACACCCCACCAACGCCTGGTCGCGGGGGTGTCCGATCTGATTTCAGCAAAACTACTGCAGTAAGAA | -2.63 ± 0.53 | -4.62 ± 1.1
10 | AATGTTGTTGATGCAACCATAAAGTGATATTTAATAATTATTTATAATCAGCAACTTAACCACAAAACAACCATATATTTCGCGAGACACCCCACCAACGCCTGGTCGCGGGGGTGTCCGATCTGATTTCAGCAAAACTACTGCAGTAAGAA | -4.98 ± 3.6 | -6 ± 1.3
11 | AATGTTGTTGATGCAACCATAAAGTGATATTTAATAATTATTTATAATCAGCAACTTAACCACAAAACAACCATCGCGGTCGCGAGACACCCCACCAACGCCTGGTCGCGGGGGTGTCCGATCTGATTTCAGCAAAACTACTGCAGTAAGAA | -3.94 ± 2.1 | -7.35 ± 1.8
12 | AATGTTGTTGATGCAACCATAAAGTGATATTTAATAATTATTTATAATCAGCAACTTAACCACAAAACAACCCGCGCGGTCGCGAGACACCCCACCAACGCCTGGTCGCGGGGGTGTCCGATCTGATTTCAGCAAAACTACTGCAGTAAGAA | -4.43 ± 0.75 | -7.91 ± 1.9
13 | AATGTTGTTGATGCAACCATAAAGTGATATTTAATAATTATTTATAATCAGCAACTTAACCACAAAACACAACGCGCGGTCGCGAGACACCCCACCAACGCCTGGTCGCGGGGGTGTCCGATCTGATTTCAGCAAAACTACTGCAGTAAGAA | -4.26 ± 0.12 | -6.99 ± 3
14 | AATGTTGTTGATGCAACCATAAAGTGATATTTAATAATTATTTATAATCAGCAACTTAACCACAAAACACCCATAAATTGATAATTAACAAAAGTTGGTATTCAACTATAAAATGTGAATCGAGTATTTCAGCAAAACTACTGCAGTAAGAA | -1.11 ± 0.65 | -2.72 ± 0.87
15 | AATGTTGTTGATGCAACCATAAAGTGATATTTAATAATTATTTATAATCAGCAACTTAACCACAAAACACCCATAAATTGATATTGCACAAAAGTTGGTATTCAACTATAAAATGTGAATCGAGTATTTCAGCAAAACTACTGCAGTAAGAA | -0.929 ± 1.3 | -3.12 ± 1
16 | AATGTTGTTGATGCAACCATAAAGTGATATTTAATAATTATTTATAATCAGCAACTTAACCACAAAACCCAACGCGCGGTCGCGAGACACCCCACCAACGCCTGGTCGCGGGGGTGTCCGATCTGATTTCAGCAAAACTACTGCAGTAAGAA | -2.9 ± 0.65 | -7.08 ± 1.4

Row | Sequence | relative integration efficiency (log2) [1] | relative integration efficiency (log2) [2]
17 | AATGTTGTTGATGCAACCATAAAGTGATATTTAATAATTATTTATAATCAGCAACTTAACCACAAAAGTTGGTATATAACTATAGAGACAAAACAACCATAAGTTGATATTTTTGTGAATCGAGTATTTCAGCAAAACTACTGCAGTAAGAA | -1.8 ± 1.5 | -2.65 ± 1.1
18 | AATGTTGTTGATGCAACCATAAAGTGATATTTAATAATTATTTATAATCAGCAACTTAACCACAAAATGTGAATCGACAACCATATATTGATATCTCACAAAACAACCATAAGTTGATATTTTGTATTTCAGCAAAACTACTGCAGTAAGAA | -3.12 ± 0.12 | -2.45 ± 0.87
19 | AATGTTGTTGATGCAACCATAAAGTGATATTTAATAATTATTTATAATCAGCAACTTAACCACAAAATGTGAATCGAGTATTCAACCATATATTGATATCTCACAAAACAACCATAAGTTGATATTTTTCAGCAAAACTACTGCAGTAAGAA | -2.89 ± 0.26 | -4 ± 1.4
20 | AATGTTGTTGATGCAACCATAAAGTGATATTTAATAATTATTTATAATCAGCAACTTAACCACAAAATGTGAATCGAGTATTTCAGCAAAACCAACCATATATTGATATCTCACAAAACAACCATAAGTTGATATTTTTACTGCAGTAAGAA | -3.73 ± 1.1 | -4.28 ± 1
21 | AATGTTGTTGATGCAACCATAAAGTGATATTTAATAATTATTTATAATCAGCAACTTAACCACAAAATGTGAATCGAGTATTTCAGCAAAACTACTGCAGTAAGAATCAACCATATATTGATATCTCACAAAACAACCATAAGTTGATATTT | -5.03 ± 3.6 | -5.36 ± 1.6
22 | AATGTTGTTGATGCAACCATAAAGTGATATTTAATAATTATTTATAATCAGCAACTTAACCACAAAATGTGAATCGAGTATTTCAGCAAAACTACTGCAGTACAACCATATATTGATATCTCACAAAACAACCATAAGTTGATATTTTAGAA | -3.82 ± 1.3 | -6.01 ± 0.9
23 | AATGTTGTTGATGCAACCATAAAGTGATATTTAATAATTATTTATAATCAGCAACTTAACCACAAAATGTGACAACCATATATTGATATCTCACAAAACAACCATAAGTTGATATTTTATCGAGTATTTCAGCAAAACTACTGCAGTAAGAA | -4.36 ± 1.1 | -4.95 ± 0.52
24 | AATGTTGTTGATGCAACCATAAAGTGATATTTAATAATTATTTATAATCAGCAACTTAACCACAAACAACCATATATTGATATCTCAACAAAACAACCATAAGTTGATATTTTTGTGAATCGAGTATTTCAGCAAAACTACTGCAGTAAGAA | -1.17 ± 1.5 | -1.37 ± 0.49
25 | AATGTTGTTGATGCAACCATAAAGTGATATTTAATAATTATTTATAATCAGCAACTTAACCACAAACAACCATATATTGATATCTCACAAAACAACCATAAGTTGATATTTTATGTGAATCGAGTATTTCAGCAAAACTACTGCAGTAAGAA | -1.02 ± 0.3 | -0.754 ± 0.26
26 | AATGTTGTTGATGCAACCATAAAGTGATATTTAATAATTATTTATAATCAGCAACTTAACCACAAACAACCATATATTGATATCTCACAAAACAACCATAAGTTGATATTTTTGTGAATCGAGTATTTCAGCAAAACTACTGCAGTAAGAAA | -0.356 ± 0.049 | -0.248 ± 0.24
27 | AATGTTGTTGATGCAACCATAAAGTGATATTTAATAATTATTTATAATCAGCAACTTAACCACAACAACCATATATTGATATCTCACAAAACAACCATAAGTTGATATTTTTGTGAATCGAGTATTTCAGCAAAACTACTGCAGTAAGAAAG | -2.53 ± 1.4 | -2.31 ± 0.76
28 | AATGTTGTTGATGCAACCATAAAGTGATATTTAATAATTATTTATAATCAGCAACTTAACCACAACCACCAACGCGCGGTCGCGAGACACCCCACCAACGCCTGGTCGCGGGGGTGTCCGATCTGATTTCAGCAAAACTACTGCAGTAAGAA | -4.35 ± 3.3 | -5.83 ± 1.9
29 | AATGTTGTTGATGCAACCATAAAGTGATATTTAATAATTATTTATAATCAGCAACTTAACCACAACCATATATTGATATCTCACAAAACAACCATAAGTTGATATTTTCAAAATGTGAATCGAGTATTTCAGCAAAACTACTGCAGTAAGAA | -2.53 ± 1.4 | -5.07 ± 0.94
30 | AATGTTGTTGATGCAACCATAAAGTGATATTTAATAATTATTTATAATCAGCAACTTAACCACAACCATATATTGATATCTCCAAAAACAAAACAACCATAAGTTGATATTTTTGTGAATCGAGTATTTCAGCAAAACTACTGCAGTAAGAA | -2.36 ± 0.59 | -3.07 ± 1
31 | AATGTTGTTGATGCAACCATAAAGTGATATTTAATAATTATTTATAATCAGCAACTTAACCACACAACCATATATTGATATCTCAAAACAAAACAACCATAAGTTGATATTTTTGTGAATCGAGTATTTCAGCAAAACTACTGCAGTAAGAA | -3.44 ± 2.9 | -2.19 ± 0.45
